Measurements published in patent US20260102505A1, “ANTI-CD45-IGN ANTIBODY DRUG CONJUGATES AND USES THEREOF” (Vor Biopharma Inc., priority 2022, published 2026).

B1: AbA: humanized and affinity matured anti-CD45 antibody, VH SEQ ID NO:71, VL SEQ ID NO:75 (antibody, V domains shown)
VH: EVQLLESGGGLVQPGGSLRLSCAASGFTFNNYWMTWVRQAPGKGLEWVSSISSSGGSIYYPDRVKGRFTISRDNSKNTLYLQMNSLRAEDTAVYYCARDERWAGAMDAWGQGTTVTVSS
VL: DIQMTQSPSSLSASVGDRVTITCKASQNINKNLDWYQQKPGKAPKLLIYETNNLQTGVPSRFSGSGSGTDFTLTISSLQPEDFATYYCYQHNSRFTFGQGTKLEIK
B2: AbB: humanized and affinity matured anti-CD45 antibody, VH SEQ ID NO:81, VL SEQ ID NO:85 (antibody, V domains shown)
VH: EVQLVESGGGLVQPGGSLRLSCAASGFTFTNFWMAWIRQAPGKGLEWVASISSSGGSIYYPDSVKDRFTISRDNSKNTLYLQMNSLRAEDTAVYYCVKFHHYSGGGDAWGQGTLVTVSS
VL: DIQMTQSPSSLSASVGDRVTITCKASQNINKYLDWYQQKPGKAPKLLIHYTNNLHTGIPSRFSGSGSGTDYTLTISSLQPEDFATYYCLQHSSRWTFGGGTKVEIK
B3: AbC: humanized and affinity matured anti-CD45 antibody, VH SEQ ID NO:91, VL SEQ ID NO:95 (antibody, V domains shown)
VH: EVQLVESGGGLVQPGGSLRLSCAASGFTFNNYWMTWVRQAPGKGLEWVSSISSSGGSIYYPDSVKDRFTISRDNAKNSLYLQMNSLRAEDMAVYYCARLYYYDGGGDAWGQGTLVTVSS
VL: GIQMTQSPSSLSASVGDRVTITCKASQDINKYLDWYQQKPGKAPKLLIYNTNNLHTGIPSRFSGSGSGTDYTLTISSLQPEDFATYYCLQHISRWTFGGGTKVEIK
B4: Ab2: human anti-CD45 antibody, VH SEQ ID NO:11, VL SEQ ID NO:15 (antibody, V domains shown)
VH: EVQLVESGGGLVQPGGSLRLSCAASGFTFEAYSMNWVRQAPGKGLEWVSYISLSGATIHYADSVKGRFTISRDNAKNSLYLQMNSLRAEDTAVYYCARGGQYYYDSSDYGEVAFDIWGQGTMVTVSS
VL: DIVMTQSPLSLPVTPGEPASISCRSSQSLVSNGYNYLDWYLQKPGQSPQLLIYFGSSRASGVPDRFSGSGSGTDFTLKISRVEAEDVGVYYCMQRRRTPWSFGGGTKVEIK
B5: Ab3: human anti-CD45 antibody, VH SEQ ID NO:21, VL SEQ ID NO:25 (antibody, V domains shown)
VH: QVQLVESGGGLVKPGGSLRLSCAASGFTFGGYSMNWVRQAPGKGLEWVSYISISGATITYADSVKGRFTISRDNAKNSLYLQMNSLRAEDTAVYYCARGGQYYYDSSDYGEVAFDIWGQGTMVTVSS
VL: DIVMTQSPLSLPVTPGEPASISCRSSQSLVSNGYNYLDWYLQKPGQSPQLLIYFGSSRASGVPDRFSGSGSGTDFTLKISRVEAEDVGVYYCMQRRRTPPFTFGGGTKVEIK
B6: Ab4: human anti-CD45 antibody, VH SEQ ID NO:31, VL SEQ ID NO:35 (antibody, V domains shown)
VH: EVQLVESGGGLVQPGGSLRLSCAASGFTFEAYSMNWVRQAPGKGLEWVSYISLSGATIHYADSVKGRFTISRDNAKNSLYLQMNSLRAEDTAVYYCARGGQYYYTSSDYGEVAFDIWGQGTMVTVSS
VL: DIVMTQSPLSLPVTPGEPASISCRSSQSLVSNGYNYLDWYLQKPGQSPQLLIYFGSSRASGVPDRFSGSGSGTDFTLKISRVEAEDVGVYYCMQRRRTPWSFGGGTKVEIK
B7: Ab7: human anti-CD45 antibody, VH SEQ ID NO:61, VL SEQ ID NO:65 (antibody, V domains shown)
VH: QVQLVESGGGLVKPGGSLRLSCAASGFTFGGYSMNWVRQAPGKGLEWVSYISISGATITYADSVKGRFTISRDNAKNSLYLQMNSLRAEDTAVYYCARGGQYYYDSSDYGEVAFDIWGQGTMVTVSS
VL: DIVMTQSPLSLPVTPGEPASISCRSSQSLVSSGYNYLDWYLQKPGQSPQLLIYFGSSRASGVPDRFSGSGSGTDFTLKISRVEAEDVGVYYCMQRRRTPPFTFGGGTKVEIK
B8: Ab6: human anti-CD45 antibody, VH SEQ ID NO:51, VL SEQ ID NO:55 (antibody, V domains shown)
VH: EVQLVESGGGLVQPGGSLRLSCAASGFTFEAYSMNWVRQAPGKGLEWVSYISLSGATIHYADSVKGRFTISRDNAKNSLYLQMNSLRAEDTAVYYCARGGQYYYTSSDYGEVAFDIWGQGTLVTVSS
VL: DIVLTQSPLSLPVTPGEPASISCRSSQSLVSSGYNYLDWYLQKPGQSPQLLIYFGSSRASGVPDRFSGSGSGTDFTLKISRVEAEDVGVYYCMQRRRTPWSFGGGTKVEIK

Each molecule was assayed on human CD45, cyno CD45 and rhesus CD45 (assay: CD45 binding / species cross-reactivity of antibodies).
Set-up: species or system cynomolgus
With B1 the “cross-reactivity with CD45 of species (in words)” value (“cross-reactivity with CD45” below) was “cross reacts with human CD45, cyno CD45 and rhesus CD45”. B2 was tested, and the “cross-reactivity with CD45” value was “cross reacts with human CD45, cyno CD45 and rhesus CD45”. B3 was tested, and the “cross-reactivity with CD45” value was “cross reacts with human CD45, cyno CD45 and rhesus CD45”. With B4 the “cross-reactivity with CD45” value was “cross reacts with human CD45, cyno CD45 and rhesus CD45”. In the case of B5, the “cross-reactivity with CD45” value is reported as “cross reacts with human CD45, cyno CD45 and rhesus CD45”. For B6, the “cross-reactivity with CD45” value was “cross reacts with human CD45, cyno CD45 and rhesus CD45”. With B7 the “cross-reactivity with CD45” value was “cross reacts with human CD45, cyno CD45 and rhesus CD45”. B8 was tested, and the “cross-reactivity with CD45” value was “cross reacts with human CD45, cyno CD45 and rhesus CD45”.
